What follows are binders tested against T1, SNAP-25206 uncleaved substrate in PC12 cells (rat (PC12 cells), UniProt P60881 1-206) (assay: cell-based assay: Western blot of PC12 lysates, ascites 1:100).
T1 construct: also called uncleaved SNAP-25
T1 sequence (P60881 whole entry): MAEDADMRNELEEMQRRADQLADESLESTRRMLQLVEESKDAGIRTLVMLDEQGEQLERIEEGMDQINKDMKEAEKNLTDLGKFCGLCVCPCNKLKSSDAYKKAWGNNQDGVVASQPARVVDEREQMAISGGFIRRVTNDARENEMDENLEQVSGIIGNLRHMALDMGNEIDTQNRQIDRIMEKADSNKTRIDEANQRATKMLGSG

| Binder | binding result |
| --- | --- |
| α-SNAP-25 mouse monoclonal antibody 2E2A6 (antibody, V domains shown) VH: QVQLQQSDAELVKPGASVKISCRASGYTFTDHSIHWVKQQPGQGLEWIGYIFPGNGNIEYNDKFKGKATLTADKSSGTAYMQLNSLTSEDSAVYFCKRMGYWGQGTSVTVSS VL: DVLMTQTPLTLSVTIGQPASISCKSSQSLLYTNGKTYLTWLFQRPGQSPKRLIYLVSELDSGVPDRFSGSGSGTDFTLEITRVEAEDLGVYYCLQSAHFPFTFGSGTKLEIKR | no binding |
| α-SNAP-25 mouse monoclonal antibody 3C1A5 (antibody, V domains shown) VH: QVKLQESGAELVKPGASVKISCKASGYTFTDHSIHWVKQKPGQGLEWIGYLFPGNGNFEYNEKFKGKATLTADKSSSTVYMYLNSLTSEDSAVYFCKRMGYWGQGTTVTVSS VL: DVVMTQTPLTLSVTIGQPASISCKSSQSLLNTNGKTYLTWLIQRPGQSPQRLIYLVSKLDSGVPDRFSGSGSGTDFTLKISRVEAEDLGVYYCLQSSHFPFTFGSGTKLEIKR | no binding |
| α-SNAP-25 mouse monoclonal antibody 1D3B8 (antibody, V domains shown) VH: QVKLQESGAELVKPGASVKISCKASGYIFTDHALHWVRQKPEQGLEWIGYIFPGNGNIEYNEKFKGKATLTADKSSSTAYMQLNSLTSGDSAMYFCKKMDYWGQGTTVTVSS VL: DVLMTQTPLSLPVSLGDQASISCRSSQSIVHSNGNTYLEWYLQKPGQSPKLLIYKVSNRFSGVPDRFSGSGSGTDFTLKISRVEAEDLGVYYCFQGSHVPPTFGAGTKLELKR | no binding |
